In patent publication US20210269521A1 (L AND L BIOPHARMA, published 2021):

Assays:
[1] = biological target: T1, human TIM-3 extracellular domain-human IgG1 Fc fusion protein (human, UniProt Q8TDQ0 22-199); assay: ELISA; preparation buffer, 0 day, against 0 day
T1 construct: Made in house or bought (ACROBiosystems TM3-H5258); also called TIM-3-hFc; not shown: human IgG1 Fc

[2] = biological target: T2, human PD-1 extracellular domain protein expressed in Example 1 (tag not stated) (human, UniProt Q15116 25-170); assay: ELISA; preparation buffer, 0 day, against 0 day
T2 construct: extracellular domain; also called PD-1 protein; not shown: human IgG1 Fc or his tag

[3] = biological target: T3, human TIM-3 extracellular domain-his tag protein (human, UniProt Q8TDQ0 22-199); assay: SPR Biacore, antibody captured on Protein A, antigen in flow
T3 construct: Made in house or bought (ACROBiosystems TM3-H5229); also called TIM-3-his; Human Tim3-his; not shown: his tag
Method: (§1) First, Protein A (Thermo Pierce, Cat #21181) was conjugated to the biosensing chip CMS (Cat. #BR-1005-30, GE), and the chip was activated with the newly prepared 50 mM NHS (N-hydroxysuccinimide) and 200 mM EDC [1-ethyl-3-(3-dimethylaminopropyl) carbodiimide hydrochloride], then 10 μg/ml Protein A prepared with 10 mM NaAC (pH 4.0) was injected. […] The flow rate was 30 μl/min, the binding time was 180 seconds and the dissociation time is 300 seconds. Subsequently, the chip was washed for 30s with 10 mM Glycine-HCl (pH 1.5) at 30 μl/min. The data were fitted with a 1:1 Langmuir model using the software of Biacore T200 evaluation version 3.0 (GE), and the affinity value KD was obtained.

[4] = biological target: T4, Human PD-1-his (human, UniProt Q15116 25-170); assay: as above
T4 construct: extracellular domain; not shown: his tag
Method: as §1

[5] = biological target: T1, human TIM-3 extracellular domain-human …; assay: ELISA
Method: (§2) Goat-anti-hFc (Jackson, 109-005-008) was diluted to a concentration of 1 μg/ml with PBS buffer (pH 7.4) and added to a 96-well microplate (Corning, CLS3590-100EA) at a volume of 50 μl/well, then incubated in an incubator at 37° C. for 2 hours (Or the antigen TIM-3 was directly used to coat the microplate with a concentration of 0.5 μg/ml, and then the antibody to be tested was directly added). After discarding the liquid, a blocking solution of 5% skimmed milk (skimmed milk powder purchased from Bright) diluted with PBS was added at 200 μl per well, and the microplate was incubated for 2.5 hours at 37° C. or overnight (16-18 hours) at 4° C. for blocking. The blocking solution was discarded, and the microplate was washed 5 times with PBST buffer (PBS with pH 7.4 containing 0.05% tween-20), then 50 μl/well of 0.5 μg/ml TIM-3-hFc (Example 1) was added and incubated for 2 hours in a 37° C. incubator. After incubation, the microplate was washed 6 times with PB ST. 50 μl/well of supernatant (containing testing antibody) or different concentrations of the antibody to be tested was added, and the microplate was incubated at 37° C. for 2 hours and washed 5 times with PBST. 50 μl/well of 1:2500 diluted HRP-labeled secondary antibody (Jackson Immuno Research, 115-035-003) was added to the microplate, incubating at 37° C. for 1 hour. After washing the microplate 5 times with PBST, 50 μl/well TMB chromogenic substrate (KPL, 52-00-03) was added to the microplate, followed by incubating at room temperature for 10-15 min.
The above-mentioned TIM-3 and PD-1 bispecific antibodies of the present invention were optimized and designed using the methods of Example 2 and Example 5, and their affinity for TIM-3 and PD-1 were tested respectively.

[6] = biological target: T5, TIM-3-hFc (Acro biosystems, 22-142) (human, UniProt Q8TDQ0 22-142); assay: double-sandwich ELISA: TIM-3-hFc coated, LB141 titrated, detected with PD-1-his and anti-his-HRP
T5 construct: Bought; not shown: human Fc (hFc)

[7] = biological target: T1, human TIM-3 extracellular domain-human …; assay: ELISA; remark: listed apart in the source
Method: as §2

[8] = biological target: T1, human TIM-3 extracellular domain-human …; assay: ELISA; 15 mg/mL in PBS, 37°C 0 day (-80°C)
[9] = biological target: T2, human PD-1 extracellular domain protein …; assay: ELISA; 15 mg/mL in PBS, 37°C 0 day (-80°C)
[10] = biological target: T1, human TIM-3 extracellular domain-human …; assay: ELISA; pH 6.0, 37°C 7 days, against 0 day
[11] = biological target: T2, human PD-1 extracellular domain protein …; assay: ELISA; pH 6.0, 37°C 7 days, against 0 day
[12] = biological target: T1, human TIM-3 extracellular domain-human …; assay: ELISA; pH 5.5, 40°C 5 days
[13] = biological target: T2, human PD-1 extracellular domain protein …; assay: ELISA; pH 5.5, 40°C 5 days
[14] = biological target: T1, human TIM-3 extracellular domain-human …; assay: ELISA; preparation buffer, 37°C 14 days, against 0 day
[15] = biological target: T2, human PD-1 extracellular domain protein …; assay: as above
[16] = biological target: T1, human TIM-3 extracellular domain-human …; assay: ELISA; pH 5.5, 40°C 10 days, against 0 day
[17] = biological target: T2, human PD-1 extracellular domain protein …; assay: ELISA; pH 5.5, 40°C 10 days, against 0 day

Fold change of EC50 [1]: 1 ratio | Fold change of EC50 [2]: 1 ratio | Kd [3]: 5060 pM | koff [3]: 0.00393 s⁻¹ | kon [3]: 777000 M⁻¹ s⁻¹ | Kd [4]: 6630 pM | koff [4]: 0.00285 s⁻¹ | kon [4]: 430000 M⁻¹ s⁻¹ | EC50 [5]: 81 pM | EC50 [6]: 931 pM | EC50 [7]: 648 pM | EC50 [8]: 253 pM | EC50 [9]: 293 pM | Fold change of EC50 [10]: 0.83 ratio | Fold change of EC50 [11]: 0.79 ratio | EC50 [12]: 341 pM | EC50 [13]: 200 pM | Fold change of EC50 [14]: 47.9 ratio | Fold change of EC50 [15]: 1.18 ratio | Fold change of EC50 [16]: 1.04 ratio | Fold change of EC50 [17]: 1.19 ratio
B1: bispecific antibody LB141 (bispecific antibody, human IgG4 S228P, kappa)
light: EIVLTQSPATLSLSPGERATLSCRASKGVSTSGYSYLHWYQQKPGQAPRLLIYLASYLESGVPARFSGSGSGTDFTLTISSLEPEDFAVYYCQHSRDLPLTFGGGTKVEIKRTVAAPSVFIFPPSDEQLKSGTASVVCLLNNFYPREAKVQWKVDNALQSGNSQESVTEQDSKDSTYSLSSTLTLSKADYEKHKVYACEVTHQGLSSPVTKSFNRGEC
heavy: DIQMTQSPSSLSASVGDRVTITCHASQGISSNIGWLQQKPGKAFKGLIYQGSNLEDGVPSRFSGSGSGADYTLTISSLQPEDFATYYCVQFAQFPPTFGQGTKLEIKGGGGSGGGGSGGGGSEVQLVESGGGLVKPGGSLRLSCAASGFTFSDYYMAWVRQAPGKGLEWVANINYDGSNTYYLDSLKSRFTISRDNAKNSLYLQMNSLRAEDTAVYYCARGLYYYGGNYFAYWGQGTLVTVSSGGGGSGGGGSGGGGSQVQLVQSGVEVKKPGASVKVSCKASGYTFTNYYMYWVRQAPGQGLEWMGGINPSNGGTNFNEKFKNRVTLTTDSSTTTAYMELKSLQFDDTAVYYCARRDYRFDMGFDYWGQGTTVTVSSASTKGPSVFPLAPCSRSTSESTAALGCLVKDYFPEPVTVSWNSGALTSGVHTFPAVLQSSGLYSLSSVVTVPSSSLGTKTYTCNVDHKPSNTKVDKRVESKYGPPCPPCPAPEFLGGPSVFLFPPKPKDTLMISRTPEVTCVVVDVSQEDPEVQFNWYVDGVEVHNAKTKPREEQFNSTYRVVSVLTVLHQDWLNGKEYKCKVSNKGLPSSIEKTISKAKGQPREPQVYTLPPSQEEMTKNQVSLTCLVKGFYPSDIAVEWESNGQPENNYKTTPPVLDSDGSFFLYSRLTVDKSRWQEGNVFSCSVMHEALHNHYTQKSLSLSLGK
notes: ab6VL-(G4S)3-ab6VH-(G4S)3-PemVH-hIgG4 with PemVL-κ
